These results are taken from patent US20160299151.

One series deals with T1, L-glycine-L-glutamine.
T1 chain: GQ

Another series has as its target T2, L-alanine-L-glutamine.
T2 chain: AQ

B1: holo-BpsA (BpsA pre-activated by Sfp as in Example 1), His6-tagged recombinant polypeptide (protein)
chain: MTLQETSVLEPTLQGTTTLPGLLAQRVAEHPEAIAVAYRDDKLTFRELASRSAALADYLEHLGVSADDCVGLFVEPSIDLMVGAWGILNAGAAYLPLSPEYPEDRLRYMIENSETKIILAQQRLVSRLRELAPKDVTIVTLRESEAFVRPEGTEAPAARSARPDTLAYVIYTSGSTGKPKGVMIEHRSIVNQLGWLRETYAIDRSKVILQKTPMSFDAAQWEILSPANGATVVMGAPGVYADPEGLIETIVKHNVTTLQCVPTLLQGLIDTEKFPECVSLQQIFSGGEALSRLLAIQTTQEMPGRALINVYGPTETTINSSSFPVDPADLDEGPQSISIGSPVHGTTYHILDKETLKPVGVGEIGELYIGGIQLARGYLHRDDLTAERFLEIELEEGAEPVRLYKTGDLGQWNNDGTVQFAGRADNQVKLRGYRVELDEISLAIENHDWVRNAAVIVKNDGRTGFQNLIACIELSEKEAALMDQGNHGSHHASKKSKLQVKAQLSNPGLRDDAELAARPAFDLEGAEPTPEQRARVFARKTYRFYEGGAVTQADLLGLLGATVTAGYSRKAADLAPAELGQILRWFGQYISEERLLPKYGYASPGALYATQMYFELEGVGGLKPGYYYYQPVRHQLVLISEREATGKATAQIHFIGKKSGIEPVYKNNILEVLEIETGHMVGLFEQILPAYGLDIHDRAYEPAVKDLLDVADEDYYLGTFELVPHAGARDDQAEVYVQTHGGKVAGLPEGQYRYENGELTRFSDDIVLKKHVIAINQSVYQAASFGISVYSRAEEEWLKYITLGKKLQHLMMNGLNLGFMSSGYSSKTGNPLPASRRMDAVLGANGVDSAPMYFFVGGRISDEQIGHEGMREDSVHMRGPAELIRDDLVSFLPDYMIPNRVVVFDRLPLSANGKIDVKALAASDQVNAELVERPFVAPRTETEKEIAAVWEKALRRENASVQDDFFESGGNSLIAVGLVRELNARLGVSLPLQSVLESPTIEKLARRLEREVAQESSRFVRLHAETGKARPVICWPGLGGYPMNLRSLAGEIGLGRSFYGVQSYGINEGETPYETITEMAKKDIEALKEIQPAGPYTLWGYSFGARVAFETAYQLEQAGEKVDNLFLIAPGSPKVRAENGKVWGREASFANRGYTTILFSVFTGTISGPDLDRCLETVTDEASFAEFISELKGIDVDLARRIISVVGQTYEFEYSFHELAERTLQAPISIFKAVGDDYSFLENSSGYSAEPPTVIDLDADHYSLLREDIGELVKHIRYLLGE
Consider B1, for which the “blue pigment formation (A590 after resuspension in DMSO) after 72 hours at 25 C with 4 mM substrate” value with L-glycine-L-glutamine was “In each case except the no substrate control, blue pigment formation was observed, suggesting that an indigoidine like product had indeed been formed”; with L-alanine-L-glutamine, “In each case except the no substrate control, blue pigment formation was observed, suggesting that an indigoidine like product had indeed been formed”.
